Results published in the Human Domainome abundance scans (Beltran et al. 2025).
± gives the uncertainty stated by the source.

B1: Cold shock protein CspB, residues 1 to 66; numbered along this chain, P41016 (parent)
chain: MQRGKVKWFNNEKGYGFIEVEGGSDVFVHFTAIQGEGFKTLEEGQEVSFEIVQGNRGPQAANVVKL

Variants of: B1
Assay: abundance fitness (aPCA) (normalised: wild type 0, dead -1); higher = more abundant; growth selection in yeast, the domain comes from the species named
Settings: Bacillus caldolyticus

Variant | abundance fitness
N11T | -0.025 ± 0.044
N11C | -0.051 ± 0.054
N11I | -0.065 ± 0.083
G35I | -0.108 ± 0.061
G4K | -0.654 ± 0.041
G4P | -0.571 ± 0.035
K5R | -0.035 ± 0.026
S24V | -0.016 ± 0.039
S24Q | -0.004 ± 0.055
Q34G | -0.005 ± 0.041
Q34C | -0.071 ± 0.066
Q34P | -0.062 ± 0.04
Q34Y | -0.073 ± 0.082
Q34T | -0.008 ± 0.051
Q59E | -0.103 ± 0.041
Q59T | -0.035 ± 0.042
Q59G | -0.192 ± 0.035
Q59P | -0.733 ± 0.081
Q59R | 0.092 ± 0.033
A60V | -0.254 ± 0.031
G54S | -0.026 ± 0.034
V52Q | -0.001 ± 0.054
V52N | -0.02 ± 0.093
V52E | -0.004 ± 0.037

Variant | abundance fitness
V52T | 0.012 ± 0.027
V52R | 0.009 ± 0.032
V52W | -0.053 ± 0.048
V52M | 0.038 ± 0.059
V28H | -1.04 ± 0.21
V28I | -0.048 ± 0.05
E50T | 0.01 ± 0.06
E50D | 0.016 ± 0.065
E50W | -0.013 ± 0.043
F30V | -0.049 ± 0.047
G44N | -0.086 ± 0.1
G44M | -0.043 ± 0.047
G44D | 0.019 ± 0.099
P58W | -0.016 ± 0.047
P58M | 0.006 ± 0.041
V64R | -0.003 ± 0.035
V64P | -0.731 ± 0.089
F27E | -0.183 ± 0.041
F27G | -0.229 ± 0.031
F27Y | 0.003 ± 0.054
F27P | -0.161 ± 0.042
M1H | 0.016 ± 0.18
M1L | -0.044 ± 0.044
M1C | -0.102 ± 0.1

Variant | abundance fitness
T31D | -0.141 ± 0.11
T31C | -0.146 ± 0.05
H29L | -0.48 ± 0.12
H29A | -0.532 ± 0.39
G37M | -0.117 ± 0.034
G37T | -0.069 ± 0.041
G37C | -0.049 ± 0.048
F9Y | -0.119 ± 0.061
E42N | -0.02 ± 0.065
E12I | -0.198 ± 0.04
E12H | 0.009 ± 0.054
L41E | -0.482 ± 0.044
L41Y | -0.368 ± 0.061
L41T | -0.299 ± 0.037
K65L | -0.052 ± 0.037
K65C | -0.035 ± 0.049
K65W | -0.145 ± 0.055
V6P | -0.801 ± 0.081
V6C | -0.058 ± 0.059
V6F | -0.622 ± 0.051
A32T | -0.105 ± 0.039
A32H | -0.099 ± 0.061
A32Y | -0.263 ± 0.063
A32K | -0.044 ± 0.049

Variant | abundance fitness
Q45A | 0.021 ± 0.042
S48D | 0.004 ± 0.06
L66T | -0.023 ± 0.057
L66V | 0.025 ± 0.063
L66Q | 0.021 ± 0.057
A61M | 0.022 ± 0.21
A61T | -0.072 ± 0.039
A61F | -0.06 ± 0.047
A61H | -0.004 ± 0.072
A61L | -0.067 ± 0.044
A61R | 0.015 ± 0.035
K7G | -0.106 ± 0.031
K7H | -0.088 ± 0.046
K7Y | -0.316 ± 0.042
K7Q | -0.07 ± 0.051
K7N | -0.016 ± 0.04
G23V | -0.021 ± 0.038
G23T | 0.003 ± 0.052
G23C | 0.029 ± 0.059
G23D | 0.026 ± 0.073
V63H | -0.771 ± 0.1
V63F | -1.01 ± 0.085
V63Y | -0.798 ± 0.082
Q53V | -0.001 ± 0.04

Variant | abundance fitness
Q53N | 0.004 ± 0.071
R56F | -0.181 ± 0.05
R56N | 0.018 ± 0.1
R56D | -0.175 ± 0.079
G14F | -0.484 ± 0.06
G14M | -0.202 ± 0.053
K39I | -0.133 ± 0.064
K39Y | -0.148 ± 0.062
K39G | -0.154 ± 0.045
K39T | -0.103 ± 0.04
V26K | -0.251 ± 0.059
V26Q | -0.173 ± 0.04
V26C | -0.053 ± 0.048
I51L | -0.003 ± 0.03
I51C | 0.031 ± 0.084
I51K | -0.026 ± 0.05
Q2F | 0.048 ± 0.069
Q2Y | 0.003 ± 0.051
Y15K | -0.189 ± 0.044
N10L | -0.069 ± 0.032
N10Y | -0.214 ± 0.062
N10Q | -0.025 ± 0.049
N10S | 0.01 ± 0.034
E21H | 0.027 ± 0.052

Variant | abundance fitness
E21Q | -0.007 ± 0.066
E21G | 0.02 ± 0.047
E21V | 0.013 ± 0.035
N62I | -0.299 ± 0.39
D25Y | -0.231 ± 0.06
D25K | -0.093 ± 0.046
E19H | 0.016 ± 0.073
E19Y | -0.075 ± 0.057
E46K | -0.004 ± 0.055
E46H | -0.043 ± 0.059
V20A | -0.003 ± 0.035
I33K | -0.456 ± 0.056
I33Q | -0.381 ± 0.04
I33S | -0.422 ± 0.031
I33Y | -0.527 ± 0.069
F38W | 0.024 ± 0.046
F38L | -0.086 ± 0.027
F49D | -1.08 ± 0.16
G16N | -0.98 ± 0.11
G16L | -0.901 ± 0.046
G16M | -0.965 ± 0.077
G57D | -0.249 ± 0.051
G57W | -0.256 ± 0.049
G57I | -0.231 ± 0.045

Variant | abundance fitness
G57K | -0.081 ± 0.054
G57H | -0.195 ± 0.061
F17T | -0.126 ± 0.053
F17C | -0.18 ± 0.052
F17S | -0.171 ± 0.029
F17K | -0.138 ± 0.07
F17P | -0.977 ± 0.061
E43W | -0.045 ± 0.034
E43A | 0.023 ± 0.047
E43Q | 0.025 ± 0.058
E43T | 0.025 ± 0.052
E43K | 0.059 ± 0.069
E43L | -0.012 ± 0.034
E36H | -0.047 ± 0.085
E36V | -0.003 ± 0.033
E36T | -0.006 ± 0.044
I18L | 0.015 ± 0.031
I18P | -1.19 ± 0.14
I18A | -0.272 ± 0.039
I18Y | -1.07 ± 0.18
I18G | -1.07 ± 0.15
T40S | -0.023 ± 0.034
T40G | -0.048 ± 0.042
